Data on one molecule can be found in article PMC8136826.

This data set has as its target Cas12a ΔBH (Francisella novicida, UniProt A0Q7Q2 1-1300, del953-969). Nature of the data set: EMSA. On the technique in general: In EMSA bound probe runs differently from free probe, usually more slowly.

B1: crRNA + dsDNA target (58 nt, TS/NTS) (mixed)
RNA: UAAUUUCUACUGUUGUAGAUGUGAUAAGUGGAAUGCCAUGUGGG
DNA 1: ACTCAATTTTGACAGCCCACATGGCATTCCACTTATCACTAAAGGCATCCTTCCACGT
DNA 2: ACGTGGAAGGATGCCTTTAGTGATAAGTGGAATGCCATGTGGGCTGTCAAAATTGAGT
With B1, the binding result was “binds”.
